Data: US20210347846A1

Key:
[1] = target: transient receptor potential melastatin subfamily member 4 (TRPM4), mouse (mouse) (UniProt Q7TN37); assay: co-immunoprecipitation with anti-TRPM4 antibody from cortical lysates of mice 2 h after i.p. injection of small-molecule compound P4 (40 mg/kg), against control mice
[2] = target: transient receptor potential melastatin subfamily member 4 (TRPM4), mouse (mouse) (UniProt Q7TN37); assay: co-immunoprecipitation with anti-TRPM4 antibody from cortical lysates of mice 6 h after i.p. injection of small-molecule compound P4 (40 mg/kg), against control mice

Sequence of UniProt Q7TN37 (Q7TN37 whole entry): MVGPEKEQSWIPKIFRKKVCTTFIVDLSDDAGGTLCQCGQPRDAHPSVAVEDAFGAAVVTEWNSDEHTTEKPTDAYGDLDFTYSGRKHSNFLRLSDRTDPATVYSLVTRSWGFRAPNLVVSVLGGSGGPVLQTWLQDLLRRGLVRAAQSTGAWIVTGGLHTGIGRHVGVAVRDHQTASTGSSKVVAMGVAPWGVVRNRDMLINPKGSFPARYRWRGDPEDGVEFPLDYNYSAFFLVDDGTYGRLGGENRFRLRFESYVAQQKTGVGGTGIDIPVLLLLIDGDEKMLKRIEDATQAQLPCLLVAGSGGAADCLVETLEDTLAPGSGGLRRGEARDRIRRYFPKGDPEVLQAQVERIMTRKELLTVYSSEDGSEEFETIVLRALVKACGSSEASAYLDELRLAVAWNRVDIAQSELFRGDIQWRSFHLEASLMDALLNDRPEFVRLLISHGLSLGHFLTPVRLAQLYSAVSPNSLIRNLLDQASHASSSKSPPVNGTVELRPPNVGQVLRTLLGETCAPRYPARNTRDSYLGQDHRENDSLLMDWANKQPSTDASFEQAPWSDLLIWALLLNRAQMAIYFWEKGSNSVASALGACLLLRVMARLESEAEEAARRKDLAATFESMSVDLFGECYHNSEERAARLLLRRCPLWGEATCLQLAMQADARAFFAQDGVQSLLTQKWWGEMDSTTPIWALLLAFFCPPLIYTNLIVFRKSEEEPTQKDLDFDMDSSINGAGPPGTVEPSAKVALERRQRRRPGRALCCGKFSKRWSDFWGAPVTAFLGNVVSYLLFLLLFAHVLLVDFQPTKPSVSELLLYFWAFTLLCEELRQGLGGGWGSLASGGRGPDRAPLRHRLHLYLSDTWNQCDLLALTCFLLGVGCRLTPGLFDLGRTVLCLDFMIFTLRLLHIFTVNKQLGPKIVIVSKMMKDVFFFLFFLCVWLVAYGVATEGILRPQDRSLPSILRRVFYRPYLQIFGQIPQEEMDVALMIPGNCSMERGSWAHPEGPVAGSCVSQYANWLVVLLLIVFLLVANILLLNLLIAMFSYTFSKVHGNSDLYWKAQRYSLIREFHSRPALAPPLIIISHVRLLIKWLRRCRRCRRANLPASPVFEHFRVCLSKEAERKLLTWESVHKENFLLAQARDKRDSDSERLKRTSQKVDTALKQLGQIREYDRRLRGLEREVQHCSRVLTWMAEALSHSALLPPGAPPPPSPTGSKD

reduction in NMDA receptor/TRPM4 complex formation [1]: 51% | reduction in NMDA receptor/TRPM4 complex formation [2]: 61%
Substance: GRIN2B subunit of the NMDA receptor, mouse (from UniProt Q01097 27-1482)
